# T1: Ccm(ABCD)2 heterooctameric heme translocation complex (Escherichia coli, UniProt P33931 1-207; P0ABL8 1-220; P0ABM1 1-245; P0ABM5 1-69)
# T1 construct: CcmA of Escherichia coli, as m1; CcmB of Escherichia coli, as m2; CcmC of Escherichia coli, as m3; CcmD of Escherichia coli, as m4; Nucleotide-free, inward-open state; C2-symmetric heterooctamer; Used as the target of CcmE; also called CcmABCD complex; source: GDN; copies: 2 + 2 + 2 + 2
# T1 sequence 1: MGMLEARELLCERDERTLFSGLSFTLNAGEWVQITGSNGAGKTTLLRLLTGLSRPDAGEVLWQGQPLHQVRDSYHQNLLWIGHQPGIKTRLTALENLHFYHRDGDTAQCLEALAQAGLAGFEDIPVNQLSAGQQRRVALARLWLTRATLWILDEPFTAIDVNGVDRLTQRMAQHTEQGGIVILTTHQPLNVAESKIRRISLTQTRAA
# T1 sequence 2: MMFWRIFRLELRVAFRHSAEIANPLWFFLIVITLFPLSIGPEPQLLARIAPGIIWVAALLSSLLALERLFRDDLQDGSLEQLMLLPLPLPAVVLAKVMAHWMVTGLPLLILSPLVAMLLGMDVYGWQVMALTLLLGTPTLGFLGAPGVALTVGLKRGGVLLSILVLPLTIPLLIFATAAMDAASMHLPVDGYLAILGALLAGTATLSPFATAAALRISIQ
# T1 sequence 3: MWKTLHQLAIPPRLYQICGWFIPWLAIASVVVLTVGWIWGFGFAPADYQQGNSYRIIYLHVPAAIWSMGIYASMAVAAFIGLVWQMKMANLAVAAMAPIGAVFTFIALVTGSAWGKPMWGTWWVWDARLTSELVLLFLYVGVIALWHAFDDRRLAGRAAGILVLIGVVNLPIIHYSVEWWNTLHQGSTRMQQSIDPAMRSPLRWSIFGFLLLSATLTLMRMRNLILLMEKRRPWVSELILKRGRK
# T1 sequence 4: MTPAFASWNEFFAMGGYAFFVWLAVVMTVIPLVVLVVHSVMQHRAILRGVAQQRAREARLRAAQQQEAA
# Tests used:
# [1] = biological target: the molecule itself; test: cryo-EM structure; single-particle analysis of the co-expressed, co-purified E154Q^A variant complex in GDN with 2.5 mM ATP added, closed state; Ccm(E154QAB)2CD with ATP at 3.62 A
# [2] = biological target: T1, Ccm(ABCD)2 heterooctameric heme …; test: cryo-EM structure; single-particle analysis of the co-expressed, co-purified wild-type CcmABCDE sample in GDN, nucleotide-free, inward-open state; classes Ccm(ABCD)2 at 3.47 A and Ccm(ABCD)2E at 3.81 A; 20 mM Tris/HCl pH 7.5, 150 mM NaCl; details: both partners purified
# [3] = biological target: the molecule itself; test: cryo-EM structure; single-particle analysis of the co-expressed, co-purified E154Q^A variant complex in DDM, no ATP added, closed state; Ccm(E154QAB)2CD at 3.94 A
binder,measurement,setting,value
"CcmA E154Q variant with N-terminal StrepTag(II) (natural protein, Escherichia coli, CcmA of Escherichia coli with the catalytic glutamate of the switch II region (Walker B motif) replaced; Same construct as m1 apart from E154Q; also called E154Q^A variant; ^E154QA; source: DDM or GDN) MGMLEARELLCERDERTLFSGLSFTLNAGEWVQITGSNGAGKTTLLRLLTGLSRPDAGEVLWQGQPLHQVRDSYHQNLLWIGHQPGIKTRLTALENLHFYHRDGDTAQCLEALAQAGLAGFEDIPVNQLSAGQQRRVALARLWLTRATLWILDQPFTAIDVNGVDRLTQRMAQHTEQGGIVILTTHQPLNVAESKIRRISLTQTRAA",stoichiometry N,[1],2
"CcmE, heme chaperone (natural protein, Escherichia coli, CcmE of Escherichia coli, monotopic membrane protein with an N-terminal transmembrane helix (modelled N2 to S32) and a periplasmic beta-barrel domain from F37; the ccmE gene stood in the construct used to produce CcmABCD; also called chaperone CcmE; source: GDN) MNIRRKNRLWIACAVLAGLALTIGLVLYALRSNIDLFYTPGEILYGKRETQQMPEVGQRLRVGGMVMPGSVQRDPNSLKVTFTIYDAEGSVDVSYEGILPDLFREGQGVVVQGELEKGNHILAKEVLAKHDENYTPPEVEKAMEANHRRPASVYKDPAS",stoichiometry N,[2],1
"CcmB, transmembrane subunit of the core ABC transporter CcmAB (natural protein, Escherichia coli, CcmB of Escherichia coli, integral membrane protein with six transmembrane helices, expressed from the ccm operon amplified from pEC86; Expressed from the cloned ccm operon; no truncation is described; source: DDM or GDN) MMFWRIFRLELRVAFRHSAEIANPLWFFLIVITLFPLSIGPEPQLLARIAPGIIWVAALLSSLLALERLFRDDLQDGSLEQLMLLPLPLPAVVLAKVMAHWMVTGLPLLILSPLVAMLLGMDVYGWQVMALTLLLGTPTLGFLGAPGVALTVGLKRGGVLLSILVLPLTIPLLIFATAAMDAASMHLPVDGYLAILGALLAGTATLSPFATAAALRISIQ",stoichiometry N,[3],2
